This is an account of results in publication PMC4069081, “Multivalent Viral Capsids with Internal Cargo for Fibrin Imaging” (PLoS ONE, 2014).

The target of data set [1] is fibrin clots formed from purified bovine fibrinogen with thrombin and CaCl2 (bovine) (UniProt P12799).
For data set [2], the system named is fibrin. Conditions: competitive binding to the fibrin polymerization pocket; ref [39], [40]; cited from earlier work. An excerpt: (§1) In this work, a peptide targeting group (GPR) with an affinity for fibrin was chosen to create a thrombus targeted VLP [38]. The GPR peptide was derived from the N-terminus of the α-chain of fibrin (Gly-Pro-Arg), and was discovered to bind to a pocket in the C-terminal region of the γ-chain [39], [40].

For data set [3] the following is noted: compared with original peptide (Gly-Pro-Arg); ref [41]; cited from earlier work.
Text: as §1

Data set [4] deals with fibrin. The following applies: compared with original peptide (Gly-Pro-Arg); ref [41]; cited from earlier work. As for the experimental part:
In this work, a peptide targeting group (GPR) with an affinity for fibrin was chosen to create a thrombus targeted VLP [38]. The GPR peptide was derived from the N-terminus of the α-chain of fibrin (Gly-Pro-Arg), and was discovered to bind to a pocket in the C-terminal region of the γ-chain [39], [40]. […] A GPR peptide bearing an o-aminophenol for coupling to MS2 was prepared using solid phase peptide synthesis (Figure 1b). The sequence Gly-Gly-Ser-Lys-Gly-Tyr was added to the peptide to increase the spacing between the binding residues and the capsid, as well as provide a functional handle for modification (Tyr). For peptide samples used in op ...

“GPR-MS2: bacteriophage MS2 T19pAF/N87C capsid with the GPR fibrin-targeting peptide coupled to its exterior”: in data set [1], the thrombin-induced clotting time of fibrin (light scattering at 350 nm) at 222 nM MS2 capsid (~20 µM peptide) came out at 51 min.

Turning to “GPS-MS2: bacteriophage MS2 T19pAF/N87C capsid with the GPS control peptide coupled to its exterior”, the thrombin-induced clotting time of fibrin (light scattering at 350 nm) at 222 nM MS2 capsid (~20 µM peptide); unchanged in data set [1] came out at 16 min.

Consider “Gly-Pro-Arg [originally discovered peptide from N-terminus of the α-chain of fibrin]”, for which the “Inhibition of thrombin-mediated fibrin clotting” value with fibrin [2] is “inhibit thrombin-mediated fibrin clotting”.

As for Gly-Pro-Arg-Pro-Pro, the Proteolytic resistance entry in data set [3] is “increased proteolytic resistance”. Further, in the data set on fibrin [4], the “Fibrin binding of extended peptide” value is on record as “improved fibrin-binding”.

Turning to “MS2 capsids (T19pAF/N87C) without peptide”, the thrombin-induced clotting time of fibrin (light scattering at 350 nm) at 222 nM MS2 capsid; unchanged in data set [1] is 16 min.

For the substance “free GPR peptide with C-terminal tyrosine”, in data set [1], the peptide concentration at which thrombin-induced clotting is inhibited (10 µM to 1.7 mM tested) was > 300 µM and the thrombin-induced clotting time of fibrin (light scattering at 350 nm) at 20 µM peptide; unchanged was 18 min.

In the case of “free GPS peptide with C-terminal tyrosine”, the thrombin-induced clotting time of fibrin (light scattering at 350 nm) at 20 µM peptide; unchanged in data set [1] is 13 min.
